According to article PMC3834835, “Crystal structure of RuvC resolvase in complex with Holliday junction substrate” (Nucleic Acids Research, 2013):
Positions count from the first letter of the chain named.

Assays:
[1] = target: Tt-RuvC as crystallised in complex with a synthetic Holliday junction (T. thermophilus) (UniProt Q5SJC4); assay: crystal structure; Tt-RuvC with synthetic Holliday junction (oligonucleotides J221 and J222), crystals from 0.3-0.5 M ammonium phosphate; molecular replacement, 3.75 Å; asymmetric unit holds a RuvC dimer and one HJ
[2] = target: the molecule itself; assay: crystal structure; apo Tt-RuvC, crystals from 0.1 M citric acid (pH 3.5) and 1.5 M NaCl; SAD, 1.35 Å; asymmetric unit holds a RuvC dimer
Tt-RuvC E70Q = target: T1, Tt-RuvC E70Q (Thermus thermophilus, UniProt Q5SJC4 1-166, E70Q); assay: X-ray crystallography (3.75 A); 0.3-0.5 M ammonium phosphate; Cross-linking: 100 mM NaCl, 10 mM HEPES pH 7.0, 0.5 mM DTT, 15% glycerol, 5 mM MgCl2 (+100 mM KCl for backbone thiols), protein:DNA 1:1, 37 C 2.5 h then 25 C overnight; settings: protein: recombinant; tags: none (N-terminal His-tag removed with PreScission protease); chain copies: 2; Holliday junction of 2 strands, TTT loops on two arms
T1 sequence: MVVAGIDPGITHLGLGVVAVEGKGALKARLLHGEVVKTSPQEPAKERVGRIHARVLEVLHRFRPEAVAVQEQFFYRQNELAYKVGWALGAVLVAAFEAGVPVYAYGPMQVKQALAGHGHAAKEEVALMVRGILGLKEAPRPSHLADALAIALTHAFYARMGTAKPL

Tt-RuvC E70Q L80C = target: T2, Tt-RuvC E70Q L80C (Thermus thermophilus, UniProt Q5SJC4 1-166, E70Q;L80C); assay: site-specific thiol cross-linking; 5 mM Mg2+; Cross-linking: 100 mM NaCl, 10 mM HEPES pH 7.0, 0.5 mM DTT, 15% glycerol, 5 mM MgCl2 (+100 mM KCl for backbone thiols), protein:DNA 1:1, 37 C 2.5 h then 25 C overnight; settings: protein: recombinant, tags: N-terminal His-tag, chain copies: 2, Holliday junction of 2 strands, TTT loops
T2 sequence: T1 sequence with L80C

Tt-RuvC E70Q T11C [3] = target: T3, Tt-RuvC E70Q T11C (Thermus thermophilus, UniProt Q5SJC4 1-166, E70Q;T11C); assay: site-specific thiol cross-linking; 5 mM Mg2+, 100 mM KCl; most efficient; Cross-linking: 100 mM NaCl, 10 mM HEPES pH 7.0, 0.5 mM DTT, 15% glycerol, 5 mM MgCl2 (+100 mM KCl for backbone thiols), protein:DNA 1:1, 37 C 2.5 h then 25 C overnight; settings: protein: recombinant; tags: N-terminal His-tag; chain copies: 2; Holliday junction of 4 strands, immobile
T3 sequence: T1 sequence with T11C

Tt-RuvC E70Q M108C = target: T4, Tt-RuvC E70Q M108C (Thermus thermophilus, UniProt Q5SJC4 1-166, E70Q;M108C); assay: site-specific thiol cross-linking; 5 mM Mg2+, 100 mM KCl; Cross-linking: 100 mM NaCl, 10 mM HEPES pH 7.0, 0.5 mM DTT, 15% glycerol, 5 mM MgCl2 (+100 mM KCl for backbone thiols), protein:DNA 1:1, 37 C 2.5 h then 25 C overnight; settings: protein: recombinant; tags: N-terminal His-tag; chain copies: 2; Holliday junction of 4 strands, immobile
T4 sequence: T1 sequence with M108C

Tt-RuvC E70Q P40C [4] = target: T5, Tt-RuvC E70Q P40C (Thermus thermophilus, UniProt Q5SJC4 1-166, E70Q;P40C); assay: site-specific thiol cross-linking; 5 mM Mg2+, 100 mM KCl; most efficient; Cross-linking: 100 mM NaCl, 10 mM HEPES pH 7.0, 0.5 mM DTT, 15% glycerol, 5 mM MgCl2 (+100 mM KCl for backbone thiols), protein:DNA 1:1, 37 C 2.5 h then 25 C overnight; settings: protein: recombinant; tags: N-terminal His-tag; chain copies: 2; Holliday junction of 4 strands, immobile
T5 sequence: T1 sequence with P40C

Tt-RuvC E70Q R140C = target: T6, Tt-RuvC E70Q R140C (Thermus thermophilus, UniProt Q5SJC4 1-166, E70Q;R140C); assay: site-specific thiol cross-linking; 5 mM Mg2+, 100 mM KCl; Cross-linking: 100 mM NaCl, 10 mM HEPES pH 7.0, 0.5 mM DTT, 15% glycerol, 5 mM MgCl2 (+100 mM KCl for backbone thiols), protein:DNA 1:1, 37 C 2.5 h then 25 C overnight; settings: protein: recombinant; tags: N-terminal His-tag; chain copies: 2; Holliday junction of 4 strands, immobile
T6 sequence: T1 sequence with R140C

Tt-RuvC E70Q T11C [5] = target: T3, Tt-RuvC E70Q T11C; assay: site-specific thiol cross-linking; 5 mM Mg2+, 100 mM KCl; single modification; Cross-linking: 100 mM NaCl, 10 mM HEPES pH 7.0, 0.5 mM DTT, 15% glycerol, 5 mM MgCl2 (+100 mM KCl for backbone thiols), protein:DNA 1:1, 37 C 2.5 h then 25 C overnight; settings: protein: recombinant; tags: N-terminal His-tag; chain copies: 2; Holliday junction of 4 strands
Tt-RuvC E70Q P40C [6] = target: T5, Tt-RuvC E70Q P40C; assay: as above; settings: protein: recombinant; tags: N-terminal His-tag; chain copies: 2; Holliday junction of 4 strands
Tt-RuvC E70Q R76C = target: T7, Tt-RuvC E70Q R76C (Thermus thermophilus, UniProt Q5SJC4 1-166, E70Q;R76C); assay: site-specific thiol cross-linking; 5 mM Mg2+; high efficiency; Cross-linking: 100 mM NaCl, 10 mM HEPES pH 7.0, 0.5 mM DTT, 15% glycerol, 5 mM MgCl2 (+100 mM KCl for backbone thiols), protein:DNA 1:1, 37 C 2.5 h then 25 C overnight; settings: protein: recombinant; tags: N-terminal His-tag; chain copies: 2; Holliday junction of 2 strands, TTT loops, 2 bp homology core
T7 sequence: T1 sequence with R76C

Tt-RuvC E70Q Q77C = target: T8, Tt-RuvC E70Q Q77C (Thermus thermophilus, UniProt Q5SJC4 1-166, E70Q;Q77C); assay: as above; settings: protein: recombinant; tags: N-terminal His-tag; chain copies: 2; Holliday junction of 2 strands, TTT loops, 2 bp homology core
T8 sequence: T1 sequence with Q77C

Tt-RuvC as crystallised in complex with a synthetic Holliday junction (from UniProt Q5SJC4 1-166) (enzyme)
stoichiometry N [1]: 2

B1: RuvC protein from T. thermophilus (Tt-RuvC), unliganded (apo) crystal form (enzyme)
chain: T1 sequence with Q70E
modifications: selenomethionine-substituted protein (SAD data)
notes: RuvC Holliday junction resolvase, Thermus thermophilus; No PDB id is printed for the apo structure; also called apo Tt-RuvC; RuvC resolvase; source: E. coli, purified (nickel column, tag cleavage, Mono-S column)
stoichiometry N [2]: 2

B2: HJ J221/J222 (structured_DNA)
DNA 1: CAATCGGCTTTGACCTTTGGTCAATCGGCAGAT
DNA 2: ATCTGCCGATTCTGGTTTCCAGAAAGCCGATTG
binding result (Tt-RuvC E70Q): binds

B3: HJ-25-h (structured_DNA)
DNA 1: CAATCGGCCAAGACCTTTGGTCTTGCGGCAGAT
DNA 2: ATCTGCCGCATATGGTTTCCAGATGGCCGATTG
modifications: thiol on guanine 25 of one strand
binding result (Tt-RuvC E70Q L80C; 2 bp homology core): binds

B4: HJ-8-h (structured_DNA)
DNA 1: B2 DNA 1 with C8G, T10A, A24T
DNA 2: B2 DNA 2 with C20T, G26C
modifications: thiol on guanine 8 of one strand
binding result (Tt-RuvC E70Q L80C): binds

B5: HJ-26-h (structured_DNA)
DNA 1: B2 DNA 1 with T10A, A24T, C26G
DNA 2: B2 DNA 2 with G8C, G22C
modifications: thiol on guanine 26 of one strand
binding result (Tt-RuvC E70Q L80C): binds

B6: HJ-28bb (structured_DNA)
DNA 1: GACGGCCTCGCAATCGACTATGACCGAGCACGCGAGATGT
DNA 2: ACATCTCGCGTGCTCGGTCATTCTGCAGATGCGGAGTGAA
DNA 3: TTCACTCCGCATCTGCAGATTCTGGCTGTGGCGTGTTTCT
DNA 4: AGAAACACGCCACAGCCAGAAAGTCGATTGCGAGGCCGTC
modifications: thiol tether on phosphate after nt 24 of strands 2 and 4
binding result (Tt-RuvC E70Q T11C [3]): binds | binding result (Tt-RuvC E70Q M108C): binds

B7: HJ-29bb (structured_DNA)
DNA 1: B6 DNA 1 with G16A, A17G
DNA 2: B6 DNA 2 with T24G, G25T
DNA 3: B6 DNA 3 with C16A, A17C
DNA 4: B6 DNA 4 with T24C, C25T
modifications: thiol tether on phosphate after nt 25 of strands 2 and 4
binding result (Tt-RuvC E70Q P40C [4]): binds | binding result (Tt-RuvC E70Q M108C): binds

B8: HJ-3bb (structured_DNA)
DNA 1: B6 DNA 1 with A13T, A17G
DNA 2: B6 DNA 2 with T24G, G28A, A29G
DNA 3: B6 DNA 3 with T12C, C13T, A17C
DNA 4: B6 DNA 4 with T24C, T28A
modifications: thiol tether on phosphate after nt 13 of strands 1 and 3
binding result (Tt-RuvC E70Q R140C): binds

B9: HJ-29bb-h (structured_DNA)
DNA 1: B6 DNA 1 with G16A, A17G
DNA 2: B6 DNA 2
DNA 3: B6 DNA 3 with C16A, A17C
DNA 4: B6 DNA 4 with T24C, C25T
modifications: thiol tether on phosphate after nt 25 of strand 4 only; the table lists one shared single B strand (S19) for HJ-28/29
binding result (Tt-RuvC E70Q T11C [5]): binds

B10: HJ-28bb-h (structured_DNA)
DNA 1: B6 DNA 1
DNA 2: B6 DNA 2
DNA 3: B6 DNA 3
DNA 4: B6 DNA 4
modifications: thiol tether on phosphate after nt 24 of strand 4 only
binding result (Tt-RuvC E70Q P40C [6]): binds

B11: HJ-25 (structured_DNA)
DNA 1: B3 DNA 1
DNA 2: B3 DNA 2
modifications: thiol (cysteamine) on position 2 of guanine 25 of both strands
binding result (Tt-RuvC E70Q R76C): binds | binding result (Tt-RuvC E70Q Q77C): binds
